Drawing on article PMC6189457, this text covers localisation_or_trafficking for one protein.

This data set can be described thus: confocal FL-CD19-GFP, WGA Pearson colocalisation, Nalm6 and 697. Particulars: glycan changed form; control: DMSO.

B1: CD19: swainsonine (protein)
parent chain: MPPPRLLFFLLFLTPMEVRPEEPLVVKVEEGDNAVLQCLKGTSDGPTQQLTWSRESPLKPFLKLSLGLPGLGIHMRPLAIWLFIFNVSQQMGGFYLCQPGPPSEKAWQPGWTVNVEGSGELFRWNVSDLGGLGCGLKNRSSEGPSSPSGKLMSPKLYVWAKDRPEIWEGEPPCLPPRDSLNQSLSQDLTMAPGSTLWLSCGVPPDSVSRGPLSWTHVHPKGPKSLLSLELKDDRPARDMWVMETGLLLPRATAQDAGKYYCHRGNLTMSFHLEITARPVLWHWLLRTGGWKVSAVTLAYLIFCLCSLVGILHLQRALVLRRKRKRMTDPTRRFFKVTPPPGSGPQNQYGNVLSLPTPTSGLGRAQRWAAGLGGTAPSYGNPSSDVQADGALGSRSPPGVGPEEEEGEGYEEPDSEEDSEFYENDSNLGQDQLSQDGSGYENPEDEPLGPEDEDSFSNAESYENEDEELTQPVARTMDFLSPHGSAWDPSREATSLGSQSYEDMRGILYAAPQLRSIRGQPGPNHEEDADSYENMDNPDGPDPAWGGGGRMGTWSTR
In the case of B1, the localisation_or_trafficking entry is on record as “no change”.
